Results on 7 molecules are retold here after article PMC4309369 (Cell reports, 2014).

The target of assay [1] is T1, SND1 SN1/2 domains (16–339) (human, UniProt Q7KZF4 16-339).
T1 sequence (looked up): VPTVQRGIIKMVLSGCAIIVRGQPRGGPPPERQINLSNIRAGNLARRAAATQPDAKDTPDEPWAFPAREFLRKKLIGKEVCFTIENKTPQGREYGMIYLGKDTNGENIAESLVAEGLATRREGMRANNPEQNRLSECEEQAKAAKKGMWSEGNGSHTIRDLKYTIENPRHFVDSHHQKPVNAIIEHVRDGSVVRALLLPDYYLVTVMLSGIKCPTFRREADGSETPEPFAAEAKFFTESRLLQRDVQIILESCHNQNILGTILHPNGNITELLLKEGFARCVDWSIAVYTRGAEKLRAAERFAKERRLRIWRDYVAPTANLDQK
The assay can be described thus: ITC. A general note: In ITC the heat of successive injections is recorded.

In the next assay the target is T2, SND1 (16–339) R316E (human, UniProt Q7KZF4 16-339, R316E).
T2 sequence (looked up): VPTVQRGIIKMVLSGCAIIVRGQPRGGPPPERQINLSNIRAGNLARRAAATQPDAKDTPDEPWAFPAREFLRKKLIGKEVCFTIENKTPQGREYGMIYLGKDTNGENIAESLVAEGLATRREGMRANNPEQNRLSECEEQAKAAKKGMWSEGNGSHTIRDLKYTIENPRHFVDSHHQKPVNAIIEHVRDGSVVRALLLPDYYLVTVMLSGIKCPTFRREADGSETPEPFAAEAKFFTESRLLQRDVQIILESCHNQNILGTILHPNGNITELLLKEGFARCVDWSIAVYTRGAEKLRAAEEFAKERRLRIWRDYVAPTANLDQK
Description: pull-down.

A further assay deals with T3, SND1 (16–339) R324A (human, UniProt Q7KZF4 16-339, R324A).
T3 sequence (looked up): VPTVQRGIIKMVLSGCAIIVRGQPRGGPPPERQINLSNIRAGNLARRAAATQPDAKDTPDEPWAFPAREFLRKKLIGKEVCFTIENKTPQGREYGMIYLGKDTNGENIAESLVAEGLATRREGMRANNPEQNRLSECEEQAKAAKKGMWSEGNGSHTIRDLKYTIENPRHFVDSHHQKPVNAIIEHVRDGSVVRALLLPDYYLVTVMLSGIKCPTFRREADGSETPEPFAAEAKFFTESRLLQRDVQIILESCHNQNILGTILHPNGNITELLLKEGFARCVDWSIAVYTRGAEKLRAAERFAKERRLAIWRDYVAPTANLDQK
Description: pull-down.

A further assay addresses T4, SND1 (16–339) R324E (human, UniProt Q7KZF4 16-339, R324E).
T4 sequence (looked up): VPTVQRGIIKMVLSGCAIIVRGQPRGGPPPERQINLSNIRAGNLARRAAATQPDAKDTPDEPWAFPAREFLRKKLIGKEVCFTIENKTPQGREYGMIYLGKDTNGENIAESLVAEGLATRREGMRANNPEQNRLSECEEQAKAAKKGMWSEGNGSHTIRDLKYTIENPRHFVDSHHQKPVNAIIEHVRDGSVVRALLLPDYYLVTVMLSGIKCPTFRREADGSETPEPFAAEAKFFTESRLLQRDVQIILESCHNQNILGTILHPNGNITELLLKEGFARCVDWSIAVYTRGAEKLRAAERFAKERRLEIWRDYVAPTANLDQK
Description: pull-down.

Assay [2] deals with T1, SND1 SN1/2 domains (16–339). Description: pull-down.
Assay [3] shares this target. Description: crystal structure.

As a reminder, the Kd is a measure of binding affinity in units of concentration. A high value points to weaker binding.

B1: GST-tagged MTDH (364–582) (domain or fragment, human, UniProt Q86UE4 364-582, looked up)
chain: YQWDVSRNQPYIDDEWSGLNGLSSADPNSDWNAPAEEWGNWVDEERASLLKSQEPIPDDQKVSDDDKEKGEGALPTGKSKKKKKKKKKQGEDNSTAQDTEELEKEIREDLPVNTSKTRPKQEKAFSLKTISTSDPAEVLVKNSQPIKTLPPATSTEPSVILSKSDSDKSSSQVPPILQETDKSKSNTKQNSVPPSQTKSETSWESPKQIKKKKKARRET
In assay [1], B1 yielded a Kd of roughly 600 nM. Besides, the binding result in the assay with SND1 (16–339) R316E, with SND1 (16–339) R324A and in the assay with SND1 (16–339) R324E was “binds” in each case.

B2: GST-tagged MTDH (364–582) N395A (domain or fragment, human, UniProt Q86UE4 364-582, looked up)
chain: YQWDVSRNQPYIDDEWSGLNGLSSADPNSDWAAPAEEWGNWVDEERASLLKSQEPIPDDQKVSDDDKEKGEGALPTGKSKKKKKKKKKQGEDNSTAQDTEELEKEIREDLPVNTSKTRPKQEKAFSLKTISTSDPAEVLVKNSQPIKTLPPATSTEPSVILSKSDSDKSSSQVPPILQETDKSKSNTKQNSVPPSQTKSETSWESPKQIKKKKKARRET
For the molecule B2, the binding result in assay [2] is “binds”.

B3: GST-tagged MTDH (364–582) N403A (domain or fragment, human, UniProt Q86UE4 364-582, looked up)
chain: YQWDVSRNQPYIDDEWSGLNGLSSADPNSDWNAPAEEWGAWVDEERASLLKSQEPIPDDQKVSDDDKEKGEGALPTGKSKKKKKKKKKQGEDNSTAQDTEELEKEIREDLPVNTSKTRPKQEKAFSLKTISTSDPAEVLVKNSQPIKTLPPATSTEPSVILSKSDSDKSSSQVPPILQETDKSKSNTKQNSVPPSQTKSETSWESPKQIKKKKKARRET
With B3, the binding result in assay [2] is on record as “binds”.

B4: GST-tagged MTDH (364–582) E400R (domain or fragment, human, UniProt Q86UE4 364-582, looked up)
chain: YQWDVSRNQPYIDDEWSGLNGLSSADPNSDWNAPAERWGNWVDEERASLLKSQEPIPDDQKVSDDDKEKGEGALPTGKSKKKKKKKKKQGEDNSTAQDTEELEKEIREDLPVNTSKTRPKQEKAFSLKTISTSDPAEVLVKNSQPIKTLPPATSTEPSVILSKSDSDKSSSQVPPILQETDKSKSNTKQNSVPPSQTKSETSWESPKQIKKKKKARRET
Regarding B4, the binding result in assay [2] was “binds”.

B5: GST-tagged MTDH (364–582) D389R (domain or fragment, human, UniProt Q86UE4 364-582, looked up)
chain: YQWDVSRNQPYIDDEWSGLNGLSSARPNSDWNAPAEEWGNWVDEERASLLKSQEPIPDDQKVSDDDKEKGEGALPTGKSKKKKKKKKKQGEDNSTAQDTEELEKEIREDLPVNTSKTRPKQEKAFSLKTISTSDPAEVLVKNSQPIKTLPPATSTEPSVILSKSDSDKSSSQVPPILQETDKSKSNTKQNSVPPSQTKSETSWESPKQIKKKKKARRET
B5: in assay [2], the binding result is “binds”.

B6: GST-tagged MTDH (364–582) E400A (domain or fragment, human, UniProt Q86UE4 364-582, looked up)
chain: YQWDVSRNQPYIDDEWSGLNGLSSADPNSDWNAPAEAWGNWVDEERASLLKSQEPIPDDQKVSDDDKEKGEGALPTGKSKKKKKKKKKQGEDNSTAQDTEELEKEIREDLPVNTSKTRPKQEKAFSLKTISTSDPAEVLVKNSQPIKTLPPATSTEPSVILSKSDSDKSSSQVPPILQETDKSKSNTKQNSVPPSQTKSETSWESPKQIKKKKKARRET
On to B6, for which, in assay [2], the binding result is on record as “binds”.
For SSADPNSDWNAPAEEWGNWVDE (peptide, UniProt Q86UE4 386-407, looked up) [MTDH (386–407)], in assay [3], the binding result is “binds”.
